# Patent US20250197519A1 (Xencor, published 2025)
# T1: CD20 on CD20+ Ramos B cells (human, UniProt P11836 1-297)
# T1 construct: whole, on cells; also called human CD20
# T1 sequence (looked up): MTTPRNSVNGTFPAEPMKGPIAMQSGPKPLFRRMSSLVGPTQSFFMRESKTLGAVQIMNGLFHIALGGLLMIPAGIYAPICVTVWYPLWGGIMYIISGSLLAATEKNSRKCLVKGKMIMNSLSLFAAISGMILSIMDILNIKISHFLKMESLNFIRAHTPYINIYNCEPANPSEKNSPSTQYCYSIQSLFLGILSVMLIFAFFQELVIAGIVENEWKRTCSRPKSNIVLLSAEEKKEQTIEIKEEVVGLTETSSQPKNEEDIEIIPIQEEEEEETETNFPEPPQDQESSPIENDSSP
# Assays:
# [1] = target: CD20 on CD20+ Ramos B cells (human) (UniProt P11836); experiment: flow cytometry on Ramos B cells, PE-conjugated goat anti-human IgG Fc secondary
# [2] = target: T1, CD20 on CD20+ Ramos B cells; experiment: as above
# Experimental: Next, binding of the improved CD20 mAb to CD20+ Ramos B cells was investigated. 1.5×10⁵ Ramos B cells were incubated with indicated concentrations of bivalent IgG1 mAb having either [CD20]H0L0 or optimized [CD20]_H1_L1 on ice for 1 hour. PE-conjugated goat anti-human IgG Fc was used as a secondary antibody to detect binding of the CD20 mAbs to the target cells.
EC50 [1] [µg/mL],EC50 [2] [µg/mL],Molecule
0.264,–,bivalent IgG1 mAb having the rituximab Fv [CD20]_H0L0 (antibody)
–,0.175,"bivalent IgG1 mAb having humanized/affinity-optimized [CD20]_H1_L1 Fv (antibody, V domains shown, also called improved CD20 mAb) VH: QVQLVQSGAEVKKPGASVKVSCKASGYTFTSYNMHWVRQAPGQRLEWMGAIYPGNGATSYSQKFQGRVTITADTSASTAYMELSSLRSEDTAVYYCARSYYMGGDWYFDVWGAGTLVTVSS VL: QIVLTQSPSSLSASVGDRVTITCRASWSVSYIHWFQQKPGKSPKPLIYATSNLASGVPVRFSGSGSGTDYTLTISSLQPEDFATYYCQQWTHNPPTFGGGTKVEIK"
